The values that follow come from publication PMC7924340 (Toxins, 2021).

One may read the IC50 as the midpoint of a concentration-inhibition curve. Low readings indicate greater potency in that assay, high ones weaker potency in that assay.

Experiment [1] deals with Acetylcholine binding protein from Aplysia californica (Aplysia californica). As to the kind of experiment: radioligand binding.
Experiment [2] deals with T1, Acetylcholine binding protein from Lymnaea stagnalis (Lymnaea stagnalis, UniProt P58154 20-229).
T1 construct: also called AChBP L. stagnalis; L. stagnalis AChBP
Kind of experiment: radioligand binding. Conditions: both partners purified.

In experiment [1], “α-Cobratoxin from cobra Naja kaouthia venom (from UniProt P01391 1-71) (natural protein)” yielded an IC50 of 385 nM. This lies in the sub-micromolar range.

B1: α-Cobratoxin from cobra Naja kaouthia venom (natural protein)
chain: IRCFITPDITSKDCPNGHVCYTKTWCDAFCSIRGKRVDLGCAATCPTVKTGVDIQCCSTDNCNPFPTRKRP
B1 came in with a concentration for half-maximal inhibition (IC50) in experiment [2] of 25.4 ± 0.8 nM.
